B1: Hairpin Ribozyme (parent)
chain: GUCCUCUUUCACGUGCGCGUGAAAGAGAGAAGUGAACCAGAGAAACACACGUUGUGGUAUAUUACCUGGUA

Variants of: B1
Assay: self-cleavage, relative activity (ratio to wild type); higher = more cleavage; co-transcriptional

Variant	self-cleavage
GUCCUCUUUCACGUGCGCGAGAAAGAGAGAAGGGAACCAGAGAAACACACGUUGUGGUAUAUUACCUGGUA [U20A U33G]	0.183
GUCCUCUUUCACGUGCGCGAGAAAGAGAGAAGAGAACCAGAGAAACACACGUUGUGGUAUAUUACCUGGUA [U20A U33A]	0.114
GUCCUCUUUCACGUGCGCUUGAAAGAGAGAAGUGAACCAGAGAAACACACGUUGUCGUAUAUUACCUGGUA [G19U G56C]	0.223
GUCCUCUUUCACGUGCGCUUGAAAGAGAGAAGUGAACCAGAGAAACACACGUUGUAGUAUAUUACCUGGUA [G19U G56A]	0.16
GUCCUCUUUCACGUGCGCGAGAAAGAGAGAAGUGAACCAGAGAAACACACGUUGUGGUAUAUUACGUGGUA [U20A C66G]	0.0899
GUCCUCUUUCACGUGCGCGAGAAAGAGAGAAGUGAACCAGAGAAACACACGUUGUGGUAUAUUACUUGGUA [U20A C66U]	0.487
GUCCUCUUUCACGUGCGCUUGAAAGAGAGAAGUGAACCAGAGAAACACACCUUGUGGUAUAUUACCUGGUA [G19U G51C]	0.707
GUCCUCUUUCACGUGCGCUUGAAAGAGAGAAGUGAACCAGAGAAACACACUUUGUGGUAUAUUACCUGGUA [G19U G51U]	0.947
GUCCUCUUUCACGUGCGCUUGAAAGAGAGAAGUGAACCAGAGAAACACACAUUGUGGUAUAUUACCUGGUA [G19U G51A]	0.956
GUCCUCUUUCACGUGCGCUUGAAAGAGAGAAGUGAACCAGAGAAACACACGUUGUGGUAUAUGACCUGGUA [G19U U63G]	0.205
GUCCUCUUUCACGUGCGCGAGAAAGAGAGAAGUGAACCAGAGCAACACACGUUGUGGUAUAUUACCUGGUA [U20A A43C]	0.0739
GUCCUCUUUCACGUGCGCGAGAAAGAGAGAAGUGAACCAGAGAAACACACGUUGUGUUAUAUUACCUGGUA [U20A G57U]	0.259
GUCCUCUUUCACGUGCGCGAGAAAGAGAGAAGUGAACCAGAGAAACACACGUUGUGGUAUCUUACCUGGUA [U20A A61C]	0.156
GUCCUCUUUCACGUGCGCUUGAAAGAGAGAAGUGAACCAGAGAAACACACGUUGUGAUAUAUUACCUGGUA [G19U G57A]	0.169
GUCCUCUUUCACGUGCGCUUGAAAGAGACAAGUGAACCAGAGAAACACACGUUGUGGUAUAUUACCUGGUA [G19U G29C]	0.0899
GUCCUCUUUCACGUGCGCGAGAAAGAGAGAAGUGAACCAGAGAAACACACGUUGUGGUAUAUUAUCUGGUA [U20A C65U]	0.388
GUCCUCUUUCACGUGCGCGAGAAAGACAGAAGUGAACCAGAGAAACACACGUUGUGGUAUAUUACCUGGUA [U20A G27C]	0.175
GUCCUCUUUCACGUGCGCGAGAAAGAAAGAAGUGAACCAGAGAAACACACGUUGUGGUAUAUUACCUGGUA [U20A G27A]	0.385
GUCCUCUUUCACGUGCGCGAGAAAGAGAGAAGUGAACCAGAGAAACACACGUUGUUGUAUAUUACCUGGUA [U20A G56U]	0.114
GUCCUCUUUCACGUGCGCGAGAAAGAGAGAAGUUAACCAGAGAAACACACGUUGUGGUAUAUUACCUGGUA [U20A G34U]	1.29
GUCCUCUUUCACGUGCGCGAGAAAGAGAGAAGUGAACCAGAUAAACACACGUUGUGGUAUAUUACCUGGUA [U20A G42U]	0.346
GUCCUCUUUCACGUGCGCGAGAAAGAGAGAAGUGAACCAGAAAAACACACGUUGUGGUAUAUUACCUGGUA [U20A G42A]	0.226
GUCCUCUUUCACGUGCGCGAGAAAGAGAGAAGUGACCCAGAGAAACACACGUUGUGGUAUAUUACCUGGUA [U20A A36C]	0.412
GUCCUCUUUCACGUGCGCGAGAAAGAGAGAAGUGUACCAGAGAAACACACGUUGUGGUAUAUUACCUGGUA [U20A A35U]	0.872
GUCCUCUUUCACGUGCGCUUGAAAGAGAGAAGUGAACCAGAGAAACACACGUUGUGGUAUAUUACCUGCUA [G19U G69C]	0.269
GUCCUCUUUCACGUGCGCUUGAAAGAGAGAAGUGAACCAGAGAAACACACGUUGUGGUAUAUUACCUGAUA [G19U G69A]	0.32

Variant	self-cleavage
GUCCUCUUUCACGUGCGCGAGAAAGAGAGAAGUGAACCAGAGAAACACAGGUUGUGGUAUAUUACCUGGUA [U20A C50G]	0.132
GUCCUCUUUCACGUGCGCGAGAAAGAGAGAAGUGAACCAGAGAAUCACACGUUGUGGUAUAUUACCUGGUA [U20A A45U]	0.172
GUCCUCUUUCACGUGCGCGAGAAAGAGAGUAGUGAACCAGAGAAACACACGUUGUGGUAUAUUACCUGGUA [U20A A30U]	0.145
GUCCUCUUUCACGUGCGCGAGAAAGGGAGAAGUGAACCAGAGAAACACACGUUGUGGUAUAUUACCUGGUA [U20A A26G]	0.859
GUCCUCUUUCACGUGCGCGAGAAAGAGAGAAGUGAAUCAGAGAAACACACGUUGUGGUAUAUUACCUGGUA [U20A C37U]	0.511
GUCCUCUUUCACGUGCGCGAGAAAGAGGGAAGUGAACCAGAGAAACACACGUUGUGGUAUAUUACCUGGUA [U20A A28G]	0.833
GUCCUCUUUCACGUGCGCGAGAAAGAGCGAAGUGAACCAGAGAAACACACGUUGUGGUAUAUUACCUGGUA [U20A A28C]	0.482
GUCCUCUUUCACGUGCGCGAGAAAGAGAGAAGUGAACCAGAGAAACACACGUUGUGGUAUAUUCCCUGGUA [U20A A64C]	0.163
GUCCUCUUUCACGUGCGCGAGAAAGAGAGAGGUGAACCAGAGAAACACACGUUGUGGUAUAUUACCUGGUA [U20A A31G]	0.466
GUCCUCUUUCACGUGCGCGAGAAAGAGAGAAGUGAACCUGAGAAACACACGUUGUGGUAUAUUACCUGGUA [U20A A39U]	0.296
GUCCUCUUUCACGUGCGCUUGAAAGAGAGAAGUGAACCAGAGAAACACACGUUGUGGAAUAUUACCUGGUA [G19U U58A]	0.607
GUCCUCUUUCACGUGCGCGAGAAAGAGAGAAUUGAACCAGAGAAACACACGUUGUGGUAUAUUACCUGGUA [U20A G32U]	0.0356
GUCCUCUUUCACGUGCGCGAGAAAGAGAGAACUGAACCAGAGAAACACACGUUGUGGUAUAUUACCUGGUA [U20A G32C]	0.174
GUCCUCUUUCACGUGCGCGAGAAAGAGAGAAGUGAACCAGAGAAAAACACGUUGUGGUAUAUUACCUGGUA [U20A C46A]	0.265
GUCCUCUUUCACGUGCGCGAGAAAGAGAGAAGUGAACCAGAGAAAGACACGUUGUGGUAUAUUACCUGGUA [U20A C46G]	0.162
GUCCUCUUUCACGUGCGCGAGAAAGAGAGAAGUGAACCAGAGAAACACACGUUGUGGUAUAUUACCUGGUA [U20A]	0.869
GUCCUCUUUCACGUGCGCUUGAAAGAGAGAAGUAAACCAGAGAAACACACGUUGUGGUAUAUUACCUGGUA [G19U G34A]	1.19
GUCCUCUUUCACGUGCGCGAGACAGAGAGAAGUGAACCAGAGAAACACACGUUGUGGUAUAUUACCUGGUA [U20A A23C]	0.734
GUCCUCUUUCACGUGCGCUUGAAAGAGAGAAGUGAACCAGAAAAACACACGUUGUGGUAUAUUACCUGGUA [G19U G42A]	0.175
GUCCUCUUUCACGUGCGCUUGAAAGAGAGAAGUGAACCAGAUAAACACACGUUGUGGUAUAUUACCUGGUA [G19U G42U]	0.346
GUCCUCUUUCACGUGCGCUUGAAAGAGAGAAGUGAACCAGAGAAACACACGUUGUGGUAUAUUACCGGGUA [G19U U67G]	0.272
GUCCUCUUUCACGUGCGCUUGAAAGAGAGAAGUGAACCAGAGAAACACACGUUGUGGUAUAUUACCAGGUA [G19U U67A]	0.131
GUCCUCUUUCACGUGCGCGAGAAAGAGAGAAGUGAACCAGAGAAACACACGUGGUGGUAUAUUACCUGGUA [U20A U53G]	0.673
GUCCUCUUUCACGUGCGCGAGAAAGAGAGAAGUGAACCAGAGAAACACACGUCGUGGUAUAUUACCUGGUA [U20A U53C]	0.682
GUCCUCUUUCACGUGCGCUUGAAAGAGAGAAGUGAACCAGAGAAACACACGUUGUGGUAUACUACCUGGUA [G19U U62C]	0.256
GUCCUCUUUCACGUGCGCUCGAAAGAGAGAAGUGAACCAGAGAAACACACGUUGUGGUAUAUUACCUGGUA [G19U U20C]	0.731

Variant	self-cleavage
GUCCUCUUUCACGUGCGCGAGAAAGAGAGAAGUGAACUAGAGAAACACACGUUGUGGUAUAUUACCUGGUA [U20A C38U]	0.45
GUCCUCUUUCACGUGCGCGAGAAAGAGAGAAGUGAACGAGAGAAACACACGUUGUGGUAUAUUACCUGGUA [U20A C38G]	0.19
GUCCUCUUUCACGUGCGCGAGAAAGAGAGAAGUGAACCAGAGACACACACGUUGUGGUAUAUUACCUGGUA [U20A A44C]	0.202
GUCCUCUUUCACGUGCGCGAGAAACAGAGAAGUGAACCAGAGAAACACACGUUGUGGUAUAUUACCUGGUA [U20A G25C]	0.447
GUCCUCUUUCACGUGCGCUUGAAAGAGAGAAGUGAACCAGAGAAACACACGUUGUGGUACAUUACCUGGUA [G19U U60C]	1.2
GUCCUCUUUCACGUGCGCGAGAAAGAGAGAAGUGAACCAGAGAAACACACGUUGUGGUGUAUUACCUGGUA [U20A A59G]	0.182
GUCCUCUUUCACGUGCGCGAGAAAGAGAGAAGUGAACCAGAGAAACACACGUUGUGGUCUAUUACCUGGUA [U20A A59C]	0.0988
GUCCUCUUUCACGUGCGCGAGAAAGAGAGAAGUGAACCAGAGAAACAUACGUUGUGGUAUAUUACCUGGUA [U20A C48U]	0.137
GUCCUCUUUCACGUGCGCGAGAAAGAGAGAAGUGAACCAGAGAAACACACGUUGAGGUAUAUUACCUGGUA [U20A U55A]	0.252
GUCCUCUUUCACGUGCGCGAGAAAGAGAGAAGUGAACCAGAGAAACACACGUUGCGGUAUAUUACCUGGUA [U20A U55C]	0.258
GUCCUCUUUCACGUGCGCGAGAAAGAGAGAAGUGAACCAGAGAAACACACGUUGGGGUAUAUUACCUGGUA [U20A U55G]	0.256
GUCCUCUUUCACGUGCGCGAGAAAGAGAGAAGUGAACCAGAGAAACACACGUUGUGGUAUAUUACCUCGUA [U20A G68C]	0.112
GUCCUCUUUCACGUGCGCUUGAAAGAGAGAAGUGAACCAGAGAAACACACGUUGCGGUAUAUUACCUGGUA [G19U U55C]	0.226
GUCCUCUUUCACGUGCGCGAGAAAGAGAGAAGUGAACCAGAGAAACACACGUUGUGGUAUAUUACCUGAUA [U20A G69A]	0.337
GUCCUCUUUCACGUGCGCGAGAAAGAGAGAAGUGAACCAGAGAAACACACUUUGUGGUAUAUUACCUGGUA [U20A G51U]	0.833
GUCCUCUUUCACGUGCGCGAGAAAGAGAGAAGUGAACCAGAGAAACACACAUUGUGGUAUAUUACCUGGUA [U20A G51A]	0.765
GUCCUCUUUCACGUGCGCGAGAAAGAGAGAAGUGAACCAGAGAAACACACGAUGUGGUAUAUUACCUGGUA [U20A U52A]	0.844
GUCCUCUUUCACGUGCGCGAGAAAGAGAGAAGUGAACCAGAGAAACACACGCUGUGGUAUAUUACCUGGUA [U20A U52C]	0.96
GUCCUCUUUCACGUGCGCUUGAAAGAGAGAAGUGAACCACAGAAACACACGUUGUGGUAUAUUACCUGGUA [G19U G40C]	0.11
GUCCUCUUUCACGUGCGCGAGAAGGAGAGAAGUGAACCAGAGAAACACACGUUGUGGUAUAUUACCUGGUA [U20A A24G]	0.895
GUCCUCUUUCACGUGCGCUUGAAAGACAGAAGUGAACCAGAGAAACACACGUUGUGGUAUAUUACCUGGUA [G19U G27C]	0.318
GUCCUCUUUCACGUGCGCUUGAAAGAUAGAAGUGAACCAGAGAAACACACGUUGUGGUAUAUUACCUGGUA [G19U G27U]	0.262
GUCCUCUUUCACGUGCGCUUGAAAGAGAGAAGUGAACCAGAGAAACACACGUUGUGGUAUAUUACCUUGUA [G19U G68U]	0.338
GUCCUCUUUCACGUGCGCGAGAAAGAGAGAAGUGAACCAUAGAAACACACGUUGUGGUAUAUUACCUGGUA [U20A G40U]	0.153
